Values of other authors in article PMC12672491.
Where two headings read alike, the source gives them in different places.

What was measured:
[1] = target: importin-α3 (Homo sapiens) (UniProt O00629)
[2] = target: importin-α3 (Homo sapiens) (UniProt O00629); remark: listed apart in the source

Sequence of UniProt O00629 (O00629 2-521): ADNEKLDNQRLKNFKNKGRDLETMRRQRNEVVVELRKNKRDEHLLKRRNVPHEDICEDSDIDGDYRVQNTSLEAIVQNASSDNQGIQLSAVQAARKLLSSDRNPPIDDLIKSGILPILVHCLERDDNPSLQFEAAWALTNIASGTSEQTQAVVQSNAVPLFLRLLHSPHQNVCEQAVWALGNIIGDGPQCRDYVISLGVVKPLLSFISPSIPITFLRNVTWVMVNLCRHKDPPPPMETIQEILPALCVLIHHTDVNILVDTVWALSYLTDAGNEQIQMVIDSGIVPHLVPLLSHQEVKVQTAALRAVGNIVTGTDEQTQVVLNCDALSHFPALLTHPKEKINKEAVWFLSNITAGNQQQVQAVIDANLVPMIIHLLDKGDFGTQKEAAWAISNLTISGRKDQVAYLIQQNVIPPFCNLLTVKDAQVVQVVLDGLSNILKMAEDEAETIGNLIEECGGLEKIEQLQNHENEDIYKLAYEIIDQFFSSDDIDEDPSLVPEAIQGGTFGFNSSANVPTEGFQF

Kd [1]: 800 nM
Kd [2]: 2100 nM
Substance: Snail (from UniProt O95863)
